From patent US20190248876A1 (NEW YORK UNIVERSITY, published 2019)

What was measured:
[1] = molecular target: T1, CXCR1 (interleukin 8 receptor alpha chain) (human, UniProt P25024 1-350); experiment: flow cytometry, GFP-toxin on primary human PMNs (CXCR1/CXCR2+ cells)
T1 construct: whole, on cells
T1 sequence: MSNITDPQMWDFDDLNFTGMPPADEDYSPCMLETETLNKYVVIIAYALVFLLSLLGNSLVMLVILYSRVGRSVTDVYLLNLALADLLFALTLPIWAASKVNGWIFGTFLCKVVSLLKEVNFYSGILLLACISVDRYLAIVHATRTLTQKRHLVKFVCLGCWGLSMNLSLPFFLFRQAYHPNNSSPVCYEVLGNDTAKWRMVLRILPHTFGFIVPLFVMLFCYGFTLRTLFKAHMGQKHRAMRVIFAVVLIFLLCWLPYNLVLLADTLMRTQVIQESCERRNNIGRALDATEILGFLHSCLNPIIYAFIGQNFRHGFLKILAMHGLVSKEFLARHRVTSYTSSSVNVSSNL

[2] = molecular target: T2, CXCR2 (interleukin 8 receptor beta chain) (human, UniProt P25025 1-360); experiment: as above
T2 construct: whole, on cells
T2 sequence: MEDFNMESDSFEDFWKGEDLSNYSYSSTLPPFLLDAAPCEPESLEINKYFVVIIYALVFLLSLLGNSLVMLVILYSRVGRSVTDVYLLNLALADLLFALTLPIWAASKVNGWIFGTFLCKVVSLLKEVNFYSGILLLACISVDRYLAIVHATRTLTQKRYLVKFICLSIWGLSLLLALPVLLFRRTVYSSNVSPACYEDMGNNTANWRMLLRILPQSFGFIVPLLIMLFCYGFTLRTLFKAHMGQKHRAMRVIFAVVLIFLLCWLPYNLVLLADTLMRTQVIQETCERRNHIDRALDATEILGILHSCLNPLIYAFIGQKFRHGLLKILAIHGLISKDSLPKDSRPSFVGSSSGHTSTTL

[3] = molecular target: T1, CXCR1 (interleukin 8 receptor alpha …); experiment: legend of FIGS. 6A-6E: flow cytometry on PMNs and pulldown
[4] = molecular target: T2, CXCR2 (interleukin 8 receptor beta …); experiment: as above

Binder	binding result [1]	binding result [2]	binding result [3]	binding result [4]
GFP-LukE (green fluorescent protein-fused LukE) (other, also called LukE-GFP) NTNIENIGDGAEVIKRTEDVSSKKWGVTQNVQFDFVKDKKYNKDALIVKMQGFINSRTSFSDVKGSGYELTKRMIWPFQYNIGLTTKDPNVSLINYLPKNKIETTDVGQTLGYNIGGNFQSAPSIGGNGSFNYSKTISYTQKSYVSEVDKQNSKSVKWGVKANEFVTPDGKKSAHDRYLFVQSPNGPTGSAREYFAPDNQLPPLVQSGFNPSFITTLSHEKGSSDTSEFEISYGRNLDITYATLFPRTGIYAERKHNAFVNRNFVVRYEVNWKTHEIKVKGHN	binds	binds		
His-LukE (N-terminal 6xHis-tagged Leukocidin E, S. aureus Newman) (other) NTNIENIGDGAEVIKRTEDVSSKKWGVTQNVQFDFVKDKKYNKDALIVKMQGFINSRTSFSDVKGSGYELTKRMIWPFQYNIGLTTKDPNVSLINYLPKNKIETTDVGQTLGYNIGGNFQSAPSIGGNGSFNYSKTISYTQKSYVSEVDKQNSKSVKWGVKANEFVTPDGKKSAHDRYLFVQSPNGPTGSAREYFAPDNQLPPLVQSGFNPSFITTLSHEKGSSDTSEFEISYGRNLDITYATLFPRTGIYAERKHNAFVNRNFVVRYEVNWKTHEIKVKGHN			binds	binds
